Measurements as given in patent publication US20150291675A1 (published 2015).
Changes are numbered by the printed parent chain.

B1: lipocalin mutein of SEQ ID NO: 1 (designed binder)
chain: QDSTSDLIPAPPLSKVPLQQNFQDNQFHGKWYVVGLAGNEVLREDKDPMKMWATIYELEEDKSYNVTIVMFLAKKCEYLFQTFVPGSQPGEFTLGDIKSSPGRTSGLVRVVSTNYNQHAMVFFKTVWQNREVFWITLYGRTKELTSELKENFIRFSKSLGLPENHIVFPVPIDQCIDG
notes: also called hNGAL mutein; Lcn2 mutein; not shown: C-terminal Strep-tag II encoded by phNGAL98
B2: lipocalin mutein of SEQ ID NO: 2 (designed binder)
chain: QDSTSDLIPAPPLSKVPLQQNFQDNQFHGKWYVVGTAGNSILREDKDPQKMWATIYELKEDKSYNVTRVFFEGKKCRYVIETFVPGSQPGEFTLGKIKSAPGGTSILVRVVSTNYNQHAMVFFKVVWQNRELFWITLYGRTKELTSELKENFIRFSKSLGLPENHIVFPVPIDQCIDG
notes: Purified with C-terminal Strep-tag II; also called hNGAL mutein; Lcn2 mutein; not shown: C-terminal Strep-tag II encoded by phNGAL98
B3: lipocalin mutein of SEQ ID NO: 4 (designed binder)
chain: QDSTSDLIPAPPLSKVPLQQNFQDNQFHGKWYVVGVAGNEMLREDKDPLKMLATIYELKEDKSYNVTRVMFEYKKCVYLIETFVPGSQPGEFTLGTIKSVPGLTSGLVRVVSTNYNQHAMVFFKRVWQNREVFWITLYGRTKELTSELKENFIRFSKSLGLPENHIVFPVPIDQCIDG
notes: as for B2
B4: lipocalin mutein of SEQ ID NO: 6 (designed binder)
chain: QDSTSDLIPAPPLSKVPLQQNFQDNQFHGKWYVVGLAGNEILREDKDPLKMWATIYELKEDKSYNVTRVQFGEKKCGYGIETFVPGSQPGEFTLGSIKSVPGGTSRLVRVVSTNYNQHAMVFFKFVWQNREVFWITLYGRTKELTSELKENFIRFSKSLGLPENHIVFPVPIDQCIDG
notes: as for B2
B5: lipocalin mutein of SEQ ID NO: 3 (designed binder)
chain: QDSTSDLIPAPPLSKVPLQQNFQDNQFHGKWYVVGVAGNGLLREDKDPLKMHATIYELKEDKSYNVTRVLFVRKKCRYYISTFVPGSQPGEFTLGRIKSEPGRTSFLVRVVSTNYNQHAMVFFKMVWQNREVFWITLYGRTKELTSELKENFIRFSKSLGLPENHIVFPVPIDQCIDG
notes: as for B2
B6: lipocalin mutein of SEQ ID NO: 5 (designed binder)
chain: QDSTSDLIPAPPLSKVPLQQNFQDNQFHGKWYVVGAAGNSLLREDKDPMKMWATIYELKEDKSYNVTRVNFGGKKCSYLIETFVPGSQPGEFTLGSIKSRPGATSVLVRVVSTNYNQHAMVFFKLVTQNREVFWITLYGRTKELTSELKENFIRFSKSLGLPENHIVFPVPIDQCIDG
notes: as for B2
B7: lipocalin mutein of SEQ ID NO: 7 (designed binder)
chain: QDSTSDLIPAPPLSKVPLQQNFQDNQFHGKWYVVGLAGNRVLREDKDPQKMFATIYELKEDKSYNVTGVDFRTKKCLYSIGTFVPGSQPGEFTLGVIKSQPGWTSYLVRVVSTNYNQHAMVFFKTVWQNREVFWITLYGRTKELTSELKENFIRFSKSLGLPENHIVFPVPIDQCIDG
notes: as for B2
B8: lipocalin mutein of SEQ ID NO: 8 (designed binder)
chain: B1 chain with E59K, F71P, K74E, D96G, S100G, T125V, I135V
notes: as for B2
B9: lipocalin mutein of SEQ ID NO: 9 (designed binder)
chain: B1 chain with E59K, F71S, T125V, E147G
notes: as for B2
B10: lipocalin mutein of SEQ ID NO: 12 (designed binder)
chain: B1 chain with E59K, K74E, K75E, T125V, E150K
notes: as for B2
B11: lipocalin mutein of SEQ ID NO: 11 (designed binder)
chain: B1 chain with V41I, E59K, T125V, E147G
notes: as for B2
B12: lipocalin mutein of SEQ ID NO: 10 (designed binder)
chain: QDSTSDLIPAPPLSKVPLQQNFQDNQFHGKWYVVGLAGNEILREDKDPMKMWATIYELKEDRSYNVTIVMFLAKKCEYLFQTFVPGSQPGEFTLGDIKSSPGRTSGLVRVVSTNYNQHAMVFFKVVWQNREVFWITLYGRTKELTPELKENFIRFSKSLGLPENHIVFPVPIDQCIDGF
notes: as for B2

Target: T1, C-terminal biotinylated human Hepcidin-25 (human, not fully specified; biotinylated via a Lysine residue coupled to the C-terminus via a Mini-PEG linker)
T1 construct: Captured on plates via Neutravidin in the ELISAs; also called C-terminal biotinylated hHepcidin; C-terminal biotinylated hepcidin (Bachem AG)
T1 peptide: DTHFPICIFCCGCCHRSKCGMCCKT
Assay: direct ELISA, hepcidin captured via Neutravidin
Procedure: A “direct” ELISA was performed to verify the binding affinity and specificity of the selected Lcn2 muteins. Therefore, a constant concentration of 1 μg/ml C-terminal biotinylated hepcidin (Bachem AG, CH) was captured on the surface of a polystyrol plate (Greiner, GE) via Neutravidin (Thermo Scientific, 5 μg/ml). Two step dilution series of purified Lcn2 muteins were incubated with the captured hepcidin […] at room temperature and detected either via the Strep-tag II using a rabbit anti-strep-tag II polyconal antibody (GenScript, USA) or by using a scaffold-specific polyclonal rabbit antibody. In both cases an anti rabbit IgG-HRP conjugate (Abcam, UK) was employed as secondary detection antibody.

Row | Binder | binding result
1 | B1 | binds
2 | B2 | binds
3 | B3 | binds
4 | B4 | binds
5 | B5 | binds
6 | B6 | binds
7 | B7 | binds

Target: T2, synthetic non-modified human Hepcidin-25 (human, not fully specified)
T2 construct: also called hHepcidin-25; non-biotinylated human Hepcidin-25
T2 peptide: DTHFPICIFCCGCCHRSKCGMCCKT
Assay: SPR (Biacore T100), mutein amine-coupled to CM5 chip, hepcidin as analyte, 1:1 model
Procedure: Lipocalin muteins were immobilized to a CM5 sensor chip using standard amine chemistry. The surface of the chip was activated using EDC and NHS. Subsequently, 20 μg/mL lipocalin mutein solutions in 10 mM sodium acetate pH 4.5 (60 μg/mL in 10 mM sodium acetate pH 4.0 for peglyted lipocalin mutein) were applied at a flow rate of 5 μL/min until a surface density of 500-700 resonance units (RU) for non-modified lipocalin muteins and of approximately 1600 RU for pegylated lipocalin with the sequence of SEQ ID NO: 13 was achieved. Residual activated groups were saturated with ethanolamine. The reference channels were treated with EDC/NHS following ethanolamine (blank immobilization). All reagents and materials were purchased from GE Healthcare.
Serial dilutions of human and cynomolgus Hepcidin-25 in running buffer (HBS-EP+, GE Healthcare, BR-1006-68) were applied to the prepared surface. The following parameters were used for the binding assay, contact time 60 s, dissociation time 180-360 s, flow rate 30 μL/min. All measurements were performed on a Biacore T100 instrument (GE Healthcare) at 25° C.
Data were evaluated with Biacore T100 Evaluation software (V 2.0.1). Double referencing was used. The 1:1 Binding model (Langmuir) was used to fit the raw data.

Row | Binder | binding result
8 | B1 | binds
9 | B8 | binds

Target: T1, C-terminal biotinylated human …
Assay: HT-screening ELISA, reverse ELISA and competition ELISA; T7- and Strep-tagged clone in crude lysate
Procedure: Lipocalin muteins were selected in a HT-screening ELISA. Therein, NGAL variants equipped with a T7 detection tag (Novagen) as well as a Strep-tag II affinity tag (IBA) were soluble expressed in a 96 well microtiter plate using the E. coli strain TG1/F with phNGAL 101. This vector corresponds to phNGAL 98 (SEQ ID NO: 31) with an N-terminal T7 tag consisting of 11 amino acids ([…]) (SEQ ID NO: 34, see also FIG. 4B). Lipocalin mutein expression was induced overnight at 22° C. at 700 rpm with anhydrotetracycline (0.2 μg/ml) at an OD₅₅₀ of 0.6. […] To minimize non-specific binding in the subsequent ELISA screen, the crude cell lysates were supplemented with 2% w/v BSA and 0.1% v/v Tween 20 and tested in ELISA for binding to human Hepcidin-25. Therefore, soluble C-terminal biotinylated human Hepcidin-25 was immobilized on wells of black Fluotrac 600 ELISA plates (Greiner; 384 well) with 1 μg/ml via capturing by Neutravidin (5 μg/ml, Thermo Scientific). Neutravidin, Streptavidin, 5 μg/ml each, and 3% milk were used as negative control. Plates were blocked with PBST/0.1 containing 2% w/v BSA, and subsequently incubated with the bacterial cell extract for 1 h at room temperature plates were washed five times and bound Lipocalin muteins were detected via an anti-T7 monoclonal antibody-HRP conjugate (Novagen), diluted 1:10.000 in PBST/O 1. Therefore, QuantaBlu™ (Pierce; 1:2 diluted in PBS/T 0.1%) was used as fluorogenic HRP substrate. After 45 min of signal development at room temperature fluorescence was excited at a wavelength of 320 nm (±12.5 nm) and measured at 430 nm (±17.5 nm) in a GENiosPlus plate reader (Tecan).
In a reverse ELISA approach soluble expressed muteins from the crude cell lysate were captured in ELISA plates via their T7-tag following incubation with varying amounts of C-terminal biotinylated hHepcidin to reach target-limiting conditions in order to differentiate the muteins by their affinity. Binding of the target was detected via Extravidin-HRP conjugate (Sigma). One could compete for mutein binding by the addition of 100 nM non-biotinylated human Hepcidin-25 indicating, that the muteins bind the non-modified hHepcidin-25 as well.

Row | Binder | binding result
10 | B9 | binds
11 | B8 | binds
12 | B10 | binds
13 | B11 | binds
14 | B12 | binds
